Test results published in US20090263900.

How the values were obtained:
ZFN 2189-11 (synthetic) = assay: cell_activity; settings: pair with r2182-8; K562 cells, 50 bp HA linear donor 6.9 ug; targeted integration 2-9.4% over donors, 0% without ZFN
ZFN r2182-8 (synthetic) = assay: cell_activity; settings: pair with 2189-11; K562 cells, 50 bp HA linear donor 6.9 ug; targeted integration 2-9.4% over donors, 0% without ZFN

Sequence | activity (ZFN 2189-11 (synthetic)) | activity (ZFN r2182-8 (synthetic))
ACTAGGGACAGGATTG (double strand) [AAVS1 2189-11 target half-site] | 9.4 % TI | 
CCCCACTGTGGGGTGG (double strand) [AAVS1 r2182-8 target half-site] |  | 9.4 % TI
